Measurements reported in patent US20250277022A1 (STAIDSON BEIJING BIOPHARMACEUTICALS, published 2025).
Where two headings read alike, the source gives them in different places.

Columns and labels:
cynomolgus monkey TSLP [1] = biological target: T1, cynomolgus monkey TSLP (cynomolgus monkey, UniProt A0A7N9CAT7 29-159); assay: ELISA, plate coated with cynomolgus monkey TSLP, test antibodies as human IgG1
T1 construct: also called cynomolgus TSLP; recombinant cynomolgus monkey TSLP
Protocol: (§1) ELISA Screening: Monoclonal scFv antibodies were selected and subjected to ligand binding assays. The first assay was designed to identify scFv antibodies that bound human TSLP and/or cynomolgus TSLP. Briefly, a 96-well plate was coated with human TSLP or cynomolgus TSLP in PBS at 0.1 μg/well and left overnight at 4° C. Before loading the scFv antibodies, the plates were washed with TBST, blocked for 1-2 hours at 37° C. using 5% milk and washed again with TBST. Each scFv sample was first diluted to 40 μg/mL, and 150 μL was added to the first row of wells. The 40 μg/mL scFv samples were then serially diluted at a 1:3 ratio and added to the remaining wells. After incubating for an hour at 37° C., followed by washing with TBST for 6 times, 100 μl of the secondary antibody (HRP labeled mouse anti-flag (1:2500)) was added to each well. After incubation for an hour under 37° C., the plate was washed for 3 times using TBST. TMB was then added at 100 μL/well and incubated for 10-20 minutes at 37° C. 2 M H₂SO₄ was used to stop the reaction. The ELISA results (OD405) were then analyzed and the binding curves were generated by PRISM.

human IL-7 = biological target: T2, human IL-7 (human, UniProt P13232 26-177); assay: ELISA on human IL-7
T2 construct: also called TSLP homologous protein IL-7
T2 sequence (looked up): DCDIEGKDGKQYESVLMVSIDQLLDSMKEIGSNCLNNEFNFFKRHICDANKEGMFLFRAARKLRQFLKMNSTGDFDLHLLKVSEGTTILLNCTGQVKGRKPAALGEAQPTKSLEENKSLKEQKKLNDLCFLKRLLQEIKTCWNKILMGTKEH

TSLP-His = biological target: T3, TSLP-His (human, UniProt Q969D9 29-159, limits assumed); assay: HTRF competition: blocking of TSLP-his binding to HEK293-Flag-hTSLPR-IL7Ra cells, IgG1
T3 construct: also called his-tagged TSLP; not shown: His-tag

human TSLP [2] = biological target: T4, human TSLP (human, UniProt Q969D9 29-159); assay: cell-based or functional assay
human TSLP [3] = biological target: T4, human TSLP; assay: cell-based or functional assay; remark: listed apart in the source
human TSLP [4] = biological target: T4, human TSLP; assay: ELISA, plate coated with human TSLP, test antibodies as human IgG1
Protocol: as §1

human TSLP [5] = biological target: T4, human TSLP; assay: cell-based or functional assay; remark: listed apart in the source
cynomolgus monkey TSLP [6] = biological target: T1, cynomolgus monkey TSLP; assay: ELISA, plate coated with cynomolgus monkey TSLP, test antibodies as human IgG1; remark: listed apart in the source
Protocol: as §1

human TSLP [7] = biological target: T4, human TSLP; assay: ELISA, plate coated with human TSLP, test antibodies as human IgG1; remark: listed apart in the source
Protocol: as §1

cynomolgus monkey TSLP [8] = biological target: T1, cynomolgus monkey TSLP; assay: solution equilibrium titration, MSD electrochemiluminescence, IgG1
human TSLP [9] = biological target: T4, human TSLP; assay: cell-based or functional assay; remark: listed apart in the source
human TSLP [10] = biological target: T4, human TSLP; assay: solution equilibrium titration, MSD electrochemiluminescence, IgG1
Protocol: Briefly, according to the manufacturer's instructions, the streptavidin MSD plates were blocked 30 mins at RT with PBS with 3% BSA (assay buffer). Serially diluted human TSLP with the concentration from 0 to 50 nM was equilibrated with the tested antibodies with the concentration of 10 pM overnight at RT, wells without antigen were used to determine Bmax values; wells containing only assay buffer were used to determine background. 50 μL of biotinylated human TSLP was coated at 0.2 μg/mL in assay buffer for 30 mins at RT on streptavidin MSD plates. After washing with PBST for 3 times, 50 μL of the equilibrated samples were transferred to those plates and incubated for 30 mins at RT. […] After washing the MSD Plate with PBST for 3 times, 150 μL of MSD read buffer was added to each well, electrochemiluminescence signals of the plate was detected using a Sector Imager 6000 (Meso Scale Discovery, Gaithersburg, MD, USA).

human TSLP [11] = biological target: T4, human TSLP; assay: ELISA, plate coated with human TSLP, test antibodies as human IgG1; remark: listed apart in the source
Protocol: as §1

cynomolgus monkey TSLP [12] = biological target: T1, cynomolgus monkey TSLP; assay: ELISA, plate coated with cynomolgus monkey TSLP, test antibodies as human IgG1; remark: listed apart in the source
Protocol: as §1

human TSLP [13] = biological target: T4, human TSLP; assay: cell-based or functional assay; remark: listed apart in the source
[14] = biological target: E. coli derived human TSLP (human, UniProt Q969D9 29-159, limits assumed); assay: cell-based or functional assay

T1 sequence (A0A7N9CAT7 entry or part of it): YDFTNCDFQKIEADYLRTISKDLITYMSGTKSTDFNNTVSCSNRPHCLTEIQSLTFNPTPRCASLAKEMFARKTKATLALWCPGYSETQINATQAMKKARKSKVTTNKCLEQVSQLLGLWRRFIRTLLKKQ

| Binder | EC50 (read off the curve) (cynomolgus monkey TSLP [1]) | binding result (human IL-7) | IC50 (TSLP-His) | IC50, inhibition of TSLP induced proliferation of Ba/F3-TSLPR-IL7Ra cells (CellTiter-Glo) (human TSLP [2]) | IC50, inhibition of human TSLP-induced Stat5 activation (Stat5-luciferase reporter, Ba/F3 cells with hTSLPR and hIL7Ra) (human TSLP [3]) | EC50 (read off the curve) (human TSLP [4]) | IC50, inhibition of human TSLP-induced Stat5 activation (Stat5-luciferase reporter, Ba/F3 cells with hTSLPR and hIL7Ra) (human TSLP [5]) | EC50 (read off the curve) (cynomolgus monkey TSLP [6]) | EC50 (read off the curve) (human TSLP [7]) | Kd (cynomolgus monkey TSLP [8]) | IC50, inhibition of human TSLP induced TARC release from human PBMCs (TARC ELISA) (human TSLP [9]) | Kd (human TSLP [10]) | EC50 (read off the curve) (human TSLP [11]) | EC50 (read off the curve) (cynomolgus monkey TSLP [12]) | IC50, inhibition of human TSLP-induced Stat5 activation (Stat5-luciferase reporter, Ba/F3 cells with hTSLPR and hIL7Ra) (human TSLP [13]) | IC50, inhibition of E. coli derived human TSLP induced Stat5 activation [14] |
| --- | --- | --- | --- | --- | --- | --- | --- | --- | --- | --- | --- | --- | --- | --- | --- | --- |
| TSLP-02 (antibody, V domains shown, also called parent antibody TSLP-02) VH: QVQLVQSGAEVKKPGSSVKVSCKASGFTFGSYGINWVRQAPGQGLEWLGVIVPLVGVTIYAEKFQGRVTITADTSTSTAYMELSSLRSEDTAVYYCARGQEYFYWYFDLWGQGTLVTVSS VL: QSALTQPPSASGSPGQSVTISCSGSSSDIGGYNRVSWYQQHPGKAPKLMIYDVSKRPSGVPDRFSGSKSGNTASLTVSGLQAEDEADYYCSSYAGTDTFILFGGGTKLTVL | ~0.7 µg/mL | no binding | 0.229 µg/mL | 0.0175 µg/mL | 0.00667 µg/mL | ~0.09 µg/mL | – | – | – | – | – | – | – | – | – | – |
| TSLP-0206 (antibody, V domains shown) VH: QVQLVQSGAEVKKPGSSVKVSCKASGFTFGSYGISWVRQAPGQGLEWLGVIVPLVDVTIYAEKFQGRVTITADTSTSTAYMELSSLRSEDTAVYYCARGQEYFYWYFDLWGQGTLVTVSS VL: QSALTQPPSASGSPGQSVTISCTGTISDIGGYNRVSWYQQHPGKAPKLMIYEVSKRPSGVPDRFSGSKSGNTASLTVSGLQAEDEADYYCSSYAGTDTFVFFGGGTKLTVL | – | – | – | 0.0651 µg/mL | – | – | 0.0183 µg/mL | ~0.3 µg/mL | ~0.04 µg/mL | – | – | – | – | – | – | – |
| TSLP-0205 (antibody, V domains shown) VH: QVQLVQSGAEVKKPGSSVKVSCKASGFTFGSYGINWVRQAPGQGLEWLGVIVPLVGVTIYAEKFQGRVTITADTSTSTAYMELSSLRSEDTAVYYCARGQEYFYWYFDLWGQGTLVTVSS VL: QSALTQPPSASGSPGQSVTISCTGTTSDIGGYNRVSWYQQHPGKAPKLMIYEVSKRPSGVPDRFSGSKSGNTASLTVSGLQAEDEADYYCSSYAGTDTFAIFGGGTKLTVL | – | – | – | 0.284 µg/mL | – | – | 0.0421 µg/mL | ~0.3 µg/mL | ~0.04 µg/mL | – | – | – | – | – | – | – |
| TSLP-0202 (antibody, V domains shown, also called TSLP-0202-IgG1) VH: QVQLVQSGAEVKKPGSSVKVSCKASGFTFGSYGINWVRQAPGQGLEWMGVIVPLVGVTIYAEKFQGRVTITADESTSTAYMELSSLRSEDTAVYYCARGQEYFYWYFDLWGQGTLVTVSS VL: QSALTQPPSASGSPGQSVTISCSGSSSDIGGYNRVSWYQQHPGKAPKLMIYDVSKRPSGVPDRFSGSKSGNTASLTVSGLQAEDEADYYCSSYAGTDTFILFGGGTKLTVL | ~0.7 µg/mL | – | 0.297 µg/mL | 0.0131 µg/mL | 0.00257 µg/mL | ~0.08 µg/mL | – | – | – | 0.00447 nM | 0.000365 µg/mL | 0.0211 nM | – | – | – | – |
| TSLP-0103 (antibody, V domains shown) VH: QVQLQESGPGLVKPSETLSLTCTVSGYSISSGYGWSWIRQPPGKGLEWIGYISYYGSISYNPSLKSRVTISRDTSKNQFSLKLSSVTAADTAVYYCARTNLLYFDSWGQGTLVTVSS VL: not shown | – | no binding | 0.379 µg/mL | – | – | – | – | – | – | – | – | – | ~0.04 µg/mL | ~0.7 µg/mL | 0.0129 µg/mL | – |
| TSLP-0107 (antibody, V domains shown, also called TSLP-0107-IgG1) VH: QVQLQESGPGLVKPSETLSLTCTVSGYSISSGYGWSWIRQPPGKGLEWIGYISYYGSISYNPSLKSRVTISVDTSKNQFSLKLSSVTAADTAVYYCARTNLLYFDSWGQGTLVTVSS VL: not shown | – | no binding | 0.116 µg/mL | 0.0136 µg/mL | – | – | – | – | – | 0.0254 nM | 0.000758 µg/mL | 0.044 nM | ~0.04 µg/mL | ~0.7 µg/mL | 0.00884 µg/mL | 0.00259 µg/mL |
